For assay [1], the target named is Thermoanaerobacter tengcongensis RecO (Thermoanaerobacter tengcongensis MB4) (UniProt Q8RB48). The assay can be described thus: SPR; Biacore3000, 25°C; TTERecO amine-coupled to CM5 chip (4900 RU); TTERecR and mutants injected (0.0125-4 µM), 20 mM HEPES pH 7.4, 200 mM NaCl, 0.005% Tween 20; 1:1 Langmuir model; apparent KD.
For assay [2] the target is unchanged. The assay is described as follows: SEC + AUC; SEC: Superdex-200, 0.5 ml/min, 50 mM Tris-HCl pH 7.5, 300 mM NaCl, 200 µg/ml; AUC: 20°C, 1 mg/ml in 5 mM Tris-HCl pH 7.5, 50 mM NaCl, 60 000 rpm (TTERecR, TTERecO) or 55 000 rpm (TTERecOR complex), SEDFIT.
In assay [3] the target is Thermoanaerobacter tengcongensis RecR, full-length (Thermoanaerobacter tengcongensis MB4) (UniProt Q8RDI4). The description is as above.
In assay [4] the target is TTERecR_(1-180) C-terminal deletion mutant (Thermoanaerobacter tengcongensis MB4) (UniProt Q8RDI4). The assay is described as follows: SEC; Superdex-200, 0.5 ml/min, 50 mM Tris-HCl pH 7.5, 300 mM NaCl, 200 µg/ml, absorbance at 280 nm. (In general: Size exclusion chromatography separates by hydrodynamic size, large species first.)
Assay [5] has as its target TTERecR_(16-196) N-terminal deletion mutant (Thermoanaerobacter tengcongensis MB4) (UniProt Q8RDI4). The assay is described as above.
The target in assay [6] is TTERecR_(1-166) C-terminal deletion mutant (Thermoanaerobacter tengcongensis MB4) (UniProt Q8RDI4). The assay is described as above.

The term stoichiometry N denotes the number of molecules, sites or subunits per partner or assembly. As for “Thermoanaerobacter tengcongensis RecR, full-length (from UniProt Q8RDI4 1-199) (natural protein)”, the Kd in assay [1] stood at 0.186 µM. For the same substance, the stoichiometry N (RecR per RecO) in assay [2] amounted to 2. Moreover, the stoichiometry N in assay [3] was 2.

In the case of “TTERecR_(1-180) C-terminal deletion mutant (from UniProt Q8RDI4 1-180) (domain or fragment)”, the stoichiometry N in assay [4] worked out at 2. Moreover, the Kd in assay [1] turned out to be 1.48 µM.

“TTERecR_(16-196) N-terminal deletion mutant (from UniProt Q8RDI4 16-196) (domain or fragment)”: in assay [5], the stoichiometry N is 2.

Substance “TTERecR_(1-166) C-terminal deletion mutant (from UniProt Q8RDI4 1-166) (domain or fragment)” displayed a stoichiometry N in assay [6] of 2. The Kd in assay [1] was determined as 0.359 µM.
